Reference: article PMC5286830, “Prokaryotic ubiquitin-like protein remains intrinsically disordered when covalently attached to proteasomal target proteins” (BMC Structural Biology, 2017)

Target: MtbDop-F (Mycobacterium tuberculosis deamidase of Pup / depupylase, randomly fluorescein-labeled) (Mycobacterium tuberculosis) (UniProt P9WNU9)
Assay: MST; Monolith NT.115, starting temperature 19 C; 30 nM MtbDop-F with serial 1:1 dilutions of MtbPup or MtbPup ~ FabD-3KR from 25 uM to 15 nM; 50 mM HEPES-NaOH pH 7.5, 150 mM NaCl, 1 mM MgCl2, 10% glycerol, 0.01% Tween-20; T-jump analysis, fit assuming 1:1 binding

MtbPup (prokaryotic ubiquitin-like protein from Mycobacterium tuberculosis, free) (from UniProt P9WHN5 1-64) (natural protein)
Kd: 14.6 nM
